In patent publication US20190300612A1 (ELANCO US, published 2019):

Tests used:
[1] = target: human PDGFRA (human, UniProt P16234 24-524, limits assumed); assay: binding ELISA on coated human PDGFRA; parental EC50 divided by variant EC50; pool evaluation
[2] = target: T1, cPDGFRA extracellular domain (ECD)-Fc fusion protein (dog); assay: titration binding ELISA on coated cPDGFRA-Fc; parental EC50 divided by variant EC50; pool evaluation
T1 construct: extracellular domain; also called cPDGFRA-Fc; cPDGFRA-ECD-Xa-Fc

[3] = target: T2, canine platelet derived growth factor receptor alpha (cPDGFRA) (dog, UniProt A0A8I3NAN8 49-553, biotinylated (sites not given) in the blocking ELISA); assay: blocking ELISA: antibody with biotinylated cPDGFRA on coated canine PDGFAA; parental IC50 divided by variant IC50; pool evaluation
T2 construct: The construct is not described; also called biotinylated-cPDGFRA

[4] = target: T1, cPDGFRA extracellular domain (ECD)-Fc …; assay: comparison of the KD values of Table 1
[5] = target: T1, cPDGFRA extracellular domain (ECD)-Fc …; assay: binding ELISA on coated cPDGFRA-Fc; unit from paragraph 44
[6] = target: T1, cPDGFRA extracellular domain (ECD)-Fc …; assay: SPR, BIAcore T200, cPDGFRA-ECD-Xa-Fc immobilized, antibody injected, 25 C
Procedure: The binding kinetics of selected K9-6N6.1 variants to cPDGFRA were measured using a BIAcore T200 instrument (BIAcore, Inc., Piscataway, N.J.). Briefly, a cPDGFRA extracellular domain (ECD)-Fc fusion protein was immobilized on a sensor chip and antibody was injected at various concentrations. Sensograms were obtained at each concentration and evaluated using the BIA Evaluation 3.0 program to determine rate constants. The affinity constant (KD) was calculated from the ratio of rate constants Koff/Kon. The evaluation was performed at 25° C.

[7] = target: T1, cPDGFRA extracellular domain (ECD)-Fc …; assay: kinetic binding to PDGFRA-Fc, antibody 30 nM; method not named for Table 1
[8] = target: T2, canine platelet derived growth factor …; assay: blocking ELISA: antibody with biotinylated cPDGFRA on coated canine PDGFAA; unit from paragraph 44
[9] = target: T3, human PDGFRA-Fc (human, UniProt P16234 24-524, limits assumed); assay: kinetic binding to PDGFRA-Fc, antibody 30 nM; method not named for Table 1
T3 construct: also called PDGFRA-Fc (Human); not shown: Fc
T3 sequence (P16234 24-524 limits assumed): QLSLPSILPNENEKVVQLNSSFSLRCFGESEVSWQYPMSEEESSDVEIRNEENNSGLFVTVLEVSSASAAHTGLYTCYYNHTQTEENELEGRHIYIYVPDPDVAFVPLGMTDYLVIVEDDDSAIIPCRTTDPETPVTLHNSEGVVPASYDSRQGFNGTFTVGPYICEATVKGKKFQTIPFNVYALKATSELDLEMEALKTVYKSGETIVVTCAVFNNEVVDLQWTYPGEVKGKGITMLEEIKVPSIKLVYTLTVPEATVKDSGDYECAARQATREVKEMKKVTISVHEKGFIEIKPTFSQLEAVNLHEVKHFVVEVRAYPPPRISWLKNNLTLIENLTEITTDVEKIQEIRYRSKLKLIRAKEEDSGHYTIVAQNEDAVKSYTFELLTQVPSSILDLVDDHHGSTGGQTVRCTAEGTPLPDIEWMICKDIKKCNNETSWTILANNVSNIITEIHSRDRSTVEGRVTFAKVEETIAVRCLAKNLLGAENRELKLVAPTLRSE

human PDGFRA, sequence (P16234 24-524 limits assumed): as above

| Human PDGFRA Binding EC50 improvement (fold) over parental K9-6N6.1 [1] | cPDGFRA Binding EC50 improvement (fold) over parental K9-6N6.1 [2] | cPDGFRA Blocking IC50 improvement (fold) over parental K9-6N6.1 [3] | fold lower affinity than Olaratumab binding to human PDGFRA [4] | EC50 [5] | Improvement (fold) of KD over parent K9-6N6.1 [6] | Kd [6] | koff [6] | kon [6] | Kd [7] | koff [7] | kon [7] | IC50 [8] | Kd [9] | koff [9] | kon [9] | Binder |
| --- | --- | --- | --- | --- | --- | --- | --- | --- | --- | --- | --- | --- | --- | --- | --- | --- |
| 1.83 fold | 1.43 fold | 13.4 fold | – | – | – | – | – | – | – | – | – | – | – | – | – | K9-6N6.1 variant LC-S28A (clone 2A2) (antibody, V domains shown) VH: QLQLQESGPGLVKPSETLSLTCTVSGGSINSSSYYWGWLRQSPGKGLEWIGSFFYTGSTYYNPSLRSRLTISVDTSKNQFSLMLSSVTAADTAVYYCARQSTYYYGSGNYYGWFDRWDQGTLVTVSS VL: EIVLTQSPATLSLSPGERATLSCRASQAVSSYLAWYQQKPGQAPRLLIYDASNRATGIPARFSGSGSGTDFTLTISSLEPEDFAVYYCQQRSNWPPAFGQGTKVEIKR |
| – | – | – | ~10 fold | 0.272 nM | 1 fold | 4.87 nM | 0.00247 s⁻¹ | 508000 M⁻¹ s⁻¹ | 1.92 nM | 0.00161 s⁻¹ | 840000 M⁻¹ s⁻¹ | 31.5 nM | – | – | – | K9-6N6.1 (antibody, Olaratumab HCVR on canine IgB heavy constant region, Olaratumab LCVR on canine kappa constant region; also called parental K9-6N6.1; parent K9-6N6.1) heavy: QLQLQESGPGLVKPSETLSLTCTVSGGSINSSSYYWGWLRQSPGKGLEWIGSFFYTGSTYYNPSLRSRLTISVDTSKNQFSLMLSSVTAADTAVYYCARQSTYYYGSGNYYGWFDRWDQGTLVTVSSASTTAPSVFPLAPSCGSTSGSTVALACLVSGYFPEPVTVSWNSGSLTSGVHTFPSVLQSSGLYSLSSMVTVPSSRWPSETFTCNVAHPASKTKVDKPVPKRENGRVPRPPDCPKCPAPEMLGGPSVFIFPPKPKDTLLIARTPEVTCVVVDLDPEDPEVQISWFVDGKQMQTAKTQPREEQFNGTYRVVSVLPIGHQDWLKGKQFTCKVNNKALPSPIERTISKARGQAHQPSVYVLPPSREELSKNTVSLTCLIKDFFPPDIDVEWQSNGQQEPESKYRTTPPQLDEDGSYFLYSKLSVDKSRWQRGDTFICAVMHEALHNHYTQESLSHSPGK light: EIVLTQSPATLSLSPGERATLSCRASQSVSSYLAWYQQKPGQAPRLLIYDASNRATGIPARFSGSGSGTDFTLTISSLEPEDFAVYYCQQRSNWPPAFGQGTKVEIKRNDAQPAVYLFQPSPDQLHTGSASVVCLLNSFYPKDINVKWKVDGVIQDTGIQESVTEQDKDSTYSLSSTLTMSSTEYLSHELYSCEITHKSLPSTLIKSFQRSECQRVD |
| – | – | – | ~10 fold | – | – | – | – | – | 3.44 nM | 0.00294 s⁻¹ | 856000 M⁻¹ s⁻¹ | – | 0.307 nM | 0.000248 s⁻¹ | 808000 M⁻¹ s⁻¹ | Olaratumab (antibody, human IgG1, kappa, Fully human IgG1 monoclonal antibody; also called IMC-3G3; human Olaratumab) heavy: not shown light: not shown |
